Data taken from IntAct's records for PubMed 17762867.

B1: Adaptin ear-binding coat-associated protein 1 (Mus musculus), Q9CR95 (parent)
chain: MAAELEYESVLCVKPDVSVYRIPPRASNRGYRASDWKLDQPDWTGRLRITSKGKIAYIKLEDKVSGELFAQAPVEQYPGIAVETVTDSSRYFVIRIQDGTGRSAFIGIGFTDRGDAFDFNVSLQDHFKWVKQETEISKESQEMDNRPKLDLGFKEGQTIKLSIGNITAKKGGASKPRASGTGGLSLLPPPPGGKVTIPPPSSSVAISNHVTPPPIPKSNHGGNDSDILLDLDSPAPVSTSAPAPVSTSNDLWGDFSTASSSVPNQAPQPSNWVQF
partner: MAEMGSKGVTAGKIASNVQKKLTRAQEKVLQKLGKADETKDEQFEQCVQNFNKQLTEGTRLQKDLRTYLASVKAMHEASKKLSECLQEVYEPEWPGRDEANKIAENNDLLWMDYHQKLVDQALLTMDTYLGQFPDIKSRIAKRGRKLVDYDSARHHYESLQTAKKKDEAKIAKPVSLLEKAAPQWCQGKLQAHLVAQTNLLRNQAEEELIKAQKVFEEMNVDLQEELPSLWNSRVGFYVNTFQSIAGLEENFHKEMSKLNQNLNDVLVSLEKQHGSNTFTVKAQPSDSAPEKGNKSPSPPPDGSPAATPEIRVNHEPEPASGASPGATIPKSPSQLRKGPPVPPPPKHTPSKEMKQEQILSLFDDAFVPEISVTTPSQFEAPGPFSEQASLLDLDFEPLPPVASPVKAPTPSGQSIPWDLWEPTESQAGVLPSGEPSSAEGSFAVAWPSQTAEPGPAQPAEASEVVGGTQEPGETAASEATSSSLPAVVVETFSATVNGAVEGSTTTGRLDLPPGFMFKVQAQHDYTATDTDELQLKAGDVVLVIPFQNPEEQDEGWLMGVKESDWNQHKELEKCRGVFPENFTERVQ
B2: Adaptin ear-binding coat-associated protein 1 (Mus musculus), Q9CR95 (parent)
chain: B1 chain
B3: Adaptin ear-binding coat-associated protein 2 (Mus musculus), Q9D1J1 (parent)
chain: MEESEYESVLCVKPEVHVYRIPPRATNRGYRASEWQLDQPSWSGRLRITAKGKVAYIKLEDRTSGELFAQAPVDQFPGTAVESVTDSSRYFVIRIEDGNGRRAFIGLGFGDRGDAFDFNVALQDHFKWVKQQCEFAKQAQNPDEGPKLDLGFKDGQTIKINIANMRKKEGAAGTPRARPTSAGGLSLLPPPPGGKSSTVIPPSGEQLSVGGSLVQPAVVSGSGGATELWPQSKPAAAATADIWGDFTKSTGSPSSQSQPGTGWVQF
partner: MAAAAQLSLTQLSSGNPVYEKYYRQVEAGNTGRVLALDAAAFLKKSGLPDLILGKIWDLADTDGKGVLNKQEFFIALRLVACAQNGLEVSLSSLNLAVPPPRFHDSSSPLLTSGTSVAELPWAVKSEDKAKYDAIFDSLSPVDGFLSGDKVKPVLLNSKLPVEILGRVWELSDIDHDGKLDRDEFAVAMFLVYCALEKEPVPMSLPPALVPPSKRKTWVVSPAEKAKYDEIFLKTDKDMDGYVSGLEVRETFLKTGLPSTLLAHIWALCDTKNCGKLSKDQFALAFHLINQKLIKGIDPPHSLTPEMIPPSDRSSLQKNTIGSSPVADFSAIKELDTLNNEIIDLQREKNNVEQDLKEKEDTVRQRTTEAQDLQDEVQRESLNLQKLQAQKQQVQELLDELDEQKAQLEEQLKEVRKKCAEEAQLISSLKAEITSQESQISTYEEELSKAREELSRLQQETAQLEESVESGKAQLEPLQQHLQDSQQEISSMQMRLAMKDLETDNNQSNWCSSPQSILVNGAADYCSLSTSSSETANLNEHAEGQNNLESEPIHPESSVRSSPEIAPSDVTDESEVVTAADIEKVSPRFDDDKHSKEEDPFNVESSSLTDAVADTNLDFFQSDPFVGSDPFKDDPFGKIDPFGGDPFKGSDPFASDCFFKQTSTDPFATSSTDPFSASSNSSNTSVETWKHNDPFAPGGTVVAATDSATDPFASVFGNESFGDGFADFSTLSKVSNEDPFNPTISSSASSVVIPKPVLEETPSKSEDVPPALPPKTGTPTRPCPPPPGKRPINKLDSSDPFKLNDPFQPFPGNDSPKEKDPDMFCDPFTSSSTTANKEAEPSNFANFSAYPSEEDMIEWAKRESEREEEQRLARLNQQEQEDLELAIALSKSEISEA
B4: Adaptin ear-binding coat-associated protein 2 (Mus musculus), Q9D1J1 (parent)
chain: B3 chain
B5: Adaptin ear-binding coat-associated protein 2 (Mus musculus), Q9D1J1 (parent)
chain: B3 chain
partner: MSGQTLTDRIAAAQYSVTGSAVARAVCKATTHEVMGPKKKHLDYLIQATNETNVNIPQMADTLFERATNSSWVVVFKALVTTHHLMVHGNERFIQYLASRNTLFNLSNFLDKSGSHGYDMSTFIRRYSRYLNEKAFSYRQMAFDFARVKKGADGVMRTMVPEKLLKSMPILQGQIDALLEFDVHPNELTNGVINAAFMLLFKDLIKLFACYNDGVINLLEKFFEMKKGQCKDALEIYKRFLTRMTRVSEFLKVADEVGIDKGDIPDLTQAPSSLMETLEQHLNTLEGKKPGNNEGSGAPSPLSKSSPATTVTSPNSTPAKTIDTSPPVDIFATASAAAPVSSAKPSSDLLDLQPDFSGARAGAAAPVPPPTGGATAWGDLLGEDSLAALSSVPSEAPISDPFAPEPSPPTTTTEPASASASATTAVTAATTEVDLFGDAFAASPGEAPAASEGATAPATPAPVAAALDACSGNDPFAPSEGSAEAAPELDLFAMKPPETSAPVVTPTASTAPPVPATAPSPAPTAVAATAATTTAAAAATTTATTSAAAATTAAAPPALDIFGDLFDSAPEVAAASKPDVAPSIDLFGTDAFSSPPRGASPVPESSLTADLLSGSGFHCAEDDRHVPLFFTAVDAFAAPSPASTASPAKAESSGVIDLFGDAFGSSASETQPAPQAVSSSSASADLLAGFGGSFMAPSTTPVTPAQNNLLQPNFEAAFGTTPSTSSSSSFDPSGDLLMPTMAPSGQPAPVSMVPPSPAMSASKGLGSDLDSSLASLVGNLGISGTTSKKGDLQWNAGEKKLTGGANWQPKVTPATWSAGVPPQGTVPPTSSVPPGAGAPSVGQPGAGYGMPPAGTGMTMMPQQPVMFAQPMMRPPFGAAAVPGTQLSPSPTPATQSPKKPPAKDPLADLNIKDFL

Variants of: B1
Conditions: with bin1_rat Bin1, O08839

Which “effect of a mutation on the interaction” value does the source give for MAAELEYESVLCVKPDVSVYAIPPRASNRGYRASDWKLDQPDWTGRLRITSKGKIAYIKLEDKVSGELFAQAPVEQYPGIAVETVTDSSRYFVIRIQDGTGRSAFIGIGFTDRGDAFDFNVSLQDHFKWVKQETEISKESQEMDNRPKLDLGFKEGQTIKLSIGNITAKKGGASKPRASGTGGLSLLPPPPGGKVTIPPPSSSVAISNHVTPPPIPKSNHGGNDSDILLDLDSPAPVSTSAPAPVSTSNDLWGDFSTASSSVPNQAPQPSNWVQF [R21A] here?
Its value is “disrupting interaction”.

Which “effect of a mutation on the interaction” value does the source give for MAAELEYESVLCVKPDVSVYRIPPRASNRGYRASDWKLDQPDWTGRLRITSKGKIAYIKLEDKVSGELFAQAPVEQYPGIAVETVTDSSRYFVIRIQDGTGASAFIGIGFTDRGDAFDFNVSLQDHFKWVKQETEISKESQEMDNRPKLDLGFKEGQTIKLSIGNITAKKGGASKPRASGTGGLSLLPPPPGGKVTIPPPSSSVAISNHVTPPPIPKSNHGGNDSDILLDLDSPAPVSTSAPAPVSTSNDLWGDFSTASSSVPNQAPQPSNWVQF [R102A] here?
Its value is “disrupting interaction”.

Variants of: B2
Conditions: with Synj1, Q62910-1
Chain of Synj1, Q62910-1 (Q62910 whole entry): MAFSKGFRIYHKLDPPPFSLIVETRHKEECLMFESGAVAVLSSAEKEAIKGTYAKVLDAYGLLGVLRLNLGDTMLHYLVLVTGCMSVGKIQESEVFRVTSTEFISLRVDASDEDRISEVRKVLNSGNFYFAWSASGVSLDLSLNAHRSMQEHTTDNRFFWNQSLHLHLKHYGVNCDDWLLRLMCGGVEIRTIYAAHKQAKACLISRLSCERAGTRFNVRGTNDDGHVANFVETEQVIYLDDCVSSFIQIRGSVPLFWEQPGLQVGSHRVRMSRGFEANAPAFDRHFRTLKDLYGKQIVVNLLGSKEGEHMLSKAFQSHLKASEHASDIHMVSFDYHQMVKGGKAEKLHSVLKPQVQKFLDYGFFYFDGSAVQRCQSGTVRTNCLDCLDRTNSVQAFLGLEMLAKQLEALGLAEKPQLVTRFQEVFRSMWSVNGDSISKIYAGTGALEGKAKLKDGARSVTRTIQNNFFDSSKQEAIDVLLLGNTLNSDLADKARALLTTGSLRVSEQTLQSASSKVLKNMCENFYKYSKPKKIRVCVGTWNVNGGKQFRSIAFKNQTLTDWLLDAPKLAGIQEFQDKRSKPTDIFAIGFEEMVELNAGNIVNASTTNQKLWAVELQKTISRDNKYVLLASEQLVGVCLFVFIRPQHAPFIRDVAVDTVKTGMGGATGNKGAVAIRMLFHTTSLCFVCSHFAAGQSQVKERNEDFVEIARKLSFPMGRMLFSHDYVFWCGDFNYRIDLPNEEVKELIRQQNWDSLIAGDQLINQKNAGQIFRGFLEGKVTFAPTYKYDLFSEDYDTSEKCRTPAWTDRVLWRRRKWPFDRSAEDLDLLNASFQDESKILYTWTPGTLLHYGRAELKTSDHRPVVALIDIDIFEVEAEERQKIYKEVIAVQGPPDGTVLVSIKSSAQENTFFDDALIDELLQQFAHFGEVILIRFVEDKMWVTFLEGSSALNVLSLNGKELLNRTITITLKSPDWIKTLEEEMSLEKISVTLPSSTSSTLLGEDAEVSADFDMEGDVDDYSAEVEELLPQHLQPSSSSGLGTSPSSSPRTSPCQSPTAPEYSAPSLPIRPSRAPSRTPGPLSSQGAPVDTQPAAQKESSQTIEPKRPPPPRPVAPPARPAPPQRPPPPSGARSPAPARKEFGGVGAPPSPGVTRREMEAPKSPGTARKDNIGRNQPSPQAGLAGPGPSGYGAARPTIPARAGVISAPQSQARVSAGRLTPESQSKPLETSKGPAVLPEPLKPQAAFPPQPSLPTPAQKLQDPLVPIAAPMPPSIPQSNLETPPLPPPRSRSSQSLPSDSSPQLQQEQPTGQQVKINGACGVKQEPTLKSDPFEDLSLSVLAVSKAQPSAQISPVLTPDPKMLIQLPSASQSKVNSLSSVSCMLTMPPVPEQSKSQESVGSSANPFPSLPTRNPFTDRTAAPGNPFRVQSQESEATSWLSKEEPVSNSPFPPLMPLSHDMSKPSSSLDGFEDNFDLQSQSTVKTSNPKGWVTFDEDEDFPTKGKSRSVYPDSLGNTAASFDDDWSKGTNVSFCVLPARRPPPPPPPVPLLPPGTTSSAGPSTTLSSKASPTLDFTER

How did the “effect of a mutation on the interaction” value turn out when MAAELEYESVLCVKPDVSVYAIPPRASNRGYRASDWKLDQPDWTGRLRITSKGKIAYIKLEDKVSGELFAQAPVEQYPGIAVETVTDSSRYFVIRIQDGTGRSAFIGIGFTDRGDAFDFNVSLQDHFKWVKQETEISKESQEMDNRPKLDLGFKEGQTIKLSIGNITAKKGGASKPRASGTGGLSLLPPPPGGKVTIPPPSSSVAISNHVTPPPIPKSNHGGNDSDILLDLDSPAPVSTSAPAPVSTSNDLWGDFSTASSSVPNQAPQPSNWVQF [R21A] was run?
The value was “decreasing interaction”.

How did the “effect of a mutation on the interaction” value turn out when MAAELEYESVLCVKPDVSVYRIPPRASNRGYRASDWKLDQPDWTGRLRITSKGKIAYIKLEDKVSGELFAQAPVEQYPGIAVETVTDSSRYFVIRIQDGTGASAFIGIGFTDRGDAFDFNVSLQDHFKWVKQETEISKESQEMDNRPKLDLGFKEGQTIKLSIGNITAKKGGASKPRASGTGGLSLLPPPPGGKVTIPPPSSSVAISNHVTPPPIPKSNHGGNDSDILLDLDSPAPVSTSAPAPVSTSNDLWGDFSTASSSVPNQAPQPSNWVQF [R102A] was run?
Its value is “disrupting interaction”.

Variants of: B3
Conditions: with Eps15, A7BFV9

Which “effect of a mutation on the interaction” value does the source give for MEESEYESVLCVKPEVHVYRIPPRATNRGYRASEWQLDQPSWSGRLRITAKGKVAYIKLEDRTSGELFAQAPVDQFPGTAVESVTDSSRYFVIRIEDGNGARAFIGLGFGDRGDAFDFNVALQDHFKWVKQQCEFAKQAQNPDEGPKLDLGFKDGQTIKINIANMRKKEGAAGTPRARPTSAGGLSLLPPPPGGKSSTVIPPSGEQLSVGGSLVQPAVVSGSGGATELWPQSKPAAAATADIWGDFTKSTGSPSSQSQPGTGWVQF [R101A] here?
The value was “disrupting interaction”.

With MEESEYESVLCVKPEVHVYAIPPRATNRGYRASEWQLDQPSWSGRLRITAKGKVAYIKLEDRTSGELFAQAPVDQFPGTAVESVTDSSRYFVIRIEDGNGRRAFIGLGFGDRGDAFDFNVALQDHFKWVKQQCEFAKQAQNPDEGPKLDLGFKDGQTIKINIANMRKKEGAAGTPRARPTSAGGLSLLPPPPGGKSSTVIPPSGEQLSVGGSLVQPAVVSGSGGATELWPQSKPAAAATADIWGDFTKSTGSPSSQSQPGTGWVQF [R20A] as the variant, how does the “effect of a mutation on the interaction” value read?
Its value is “disrupting interaction”.

Variants of: B4
Conditions: with Synj1, Q62910-1

For MEESEYESVLCVKPEVHVYAIPPRATNRGYRASEWQLDQPSWSGRLRITAKGKVAYIKLEDRTSGELFAQAPVDQFPGTAVESVTDSSRYFVIRIEDGNGRRAFIGLGFGDRGDAFDFNVALQDHFKWVKQQCEFAKQAQNPDEGPKLDLGFKDGQTIKINIANMRKKEGAAGTPRARPTSAGGLSLLPPPPGGKSSTVIPPSGEQLSVGGSLVQPAVVSGSGGATELWPQSKPAAAATADIWGDFTKSTGSPSSQSQPGTGWVQF [R20A], which “effect of a mutation on the interaction” value is on record?
Its value is “decreasing interaction”.

Which “effect of a mutation on the interaction” value does the source give for MEESEYESVLCVKPEVHVYRIPPRATNRGYRASEWQLDQPSWSGRLRITAKGKVAYIKLEDRTSGELFAQAPVDQFPGTAVESVTDSSRYFVIRIEDGNGARAFIGLGFGDRGDAFDFNVALQDHFKWVKQQCEFAKQAQNPDEGPKLDLGFKDGQTIKINIANMRKKEGAAGTPRARPTSAGGLSLLPPPPGGKSSTVIPPSGEQLSVGGSLVQPAVVSGSGGATELWPQSKPAAAATADIWGDFTKSTGSPSSQSQPGTGWVQF [R101A] here?
The value was “disrupting interaction”.

Variants of: B4
Conditions: with epn1_rat Epn1, O88339
Chain of epn1_rat Epn1, O88339 (O88339 whole entry): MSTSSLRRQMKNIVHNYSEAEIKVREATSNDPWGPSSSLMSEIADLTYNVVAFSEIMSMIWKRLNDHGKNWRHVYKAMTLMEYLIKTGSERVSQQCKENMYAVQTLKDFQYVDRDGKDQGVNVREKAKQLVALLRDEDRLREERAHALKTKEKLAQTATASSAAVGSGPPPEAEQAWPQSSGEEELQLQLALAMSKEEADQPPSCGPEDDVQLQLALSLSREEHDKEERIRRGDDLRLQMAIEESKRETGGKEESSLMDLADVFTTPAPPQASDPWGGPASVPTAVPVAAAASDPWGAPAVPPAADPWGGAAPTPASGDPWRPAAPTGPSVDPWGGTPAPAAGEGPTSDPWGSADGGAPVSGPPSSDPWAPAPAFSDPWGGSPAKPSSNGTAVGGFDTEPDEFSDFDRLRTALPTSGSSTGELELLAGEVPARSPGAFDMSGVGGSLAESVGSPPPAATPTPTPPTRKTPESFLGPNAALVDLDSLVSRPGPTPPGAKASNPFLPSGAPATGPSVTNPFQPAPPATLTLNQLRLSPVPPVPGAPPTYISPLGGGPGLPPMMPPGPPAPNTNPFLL

Which “effect of a mutation on the interaction” value does the source give for MEESEYESVLCVKPEVHVYRIPPRATNRGYRASEWQLDQPSWSGRLRITAKGKVAYIKLEDRTSGELFAQAPVDQFPGTAVESVTDSSRYFVIRIEDGNGARAFIGLGFGDRGDAFDFNVALQDHFKWVKQQCEFAKQAQNPDEGPKLDLGFKDGQTIKINIANMRKKEGAAGTPRARPTSAGGLSLLPPPPGGKSSTVIPPSGEQLSVGGSLVQPAVVSGSGGATELWPQSKPAAAATADIWGDFTKSTGSPSSQSQPGTGWVQF [R101A] here?
The value was “disrupting interaction”.

Variants of: B5
Conditions: with ap180_rat Snap91, Q05140

Which “effect of a mutation on the interaction” value does the source give for MEESEYESVLCVKPEVHVYAIPPRATNRGYRASEWQLDQPSWSGRLRITAKGKVAYIKLEDRTSGELFAQAPVDQFPGTAVESVTDSSRYFVIRIEDGNGRRAFIGLGFGDRGDAFDFNVALQDHFKWVKQQCEFAKQAQNPDEGPKLDLGFKDGQTIKINIANMRKKEGAAGTPRARPTSAGGLSLLPPPPGGKSSTVIPPSGEQLSVGGSLVQPAVVSGSGGATELWPQSKPAAAATADIWGDFTKSTGSPSSQSQPGTGWVQF [R20A] here?
The value was “disrupting interaction”.

With MEESEYESVLCVKPEVHVYRIPPRATNRGYRASEWQLDQPSWSGRLRITAKGKVAYIKLEDRTSGELFAQAPVDQFPGTAVESVTDSSRYFVIRIEDGNGARAFIGLGFGDRGDAFDFNVALQDHFKWVKQQCEFAKQAQNPDEGPKLDLGFKDGQTIKINIANMRKKEGAAGTPRARPTSAGGLSLLPPPPGGKSSTVIPPSGEQLSVGGSLVQPAVVSGSGGATELWPQSKPAAAATADIWGDFTKSTGSPSSQSQPGTGWVQF [R101A] as the variant, how does the “effect of a mutation on the interaction” value read?
The value was “disrupting interaction”.

How did the “effect of a mutation on the interaction” value turn out when MEESEYESVLCVKPEVHVYRIPPRATNRGYRASEWQLDQPAWSGRLRITAKGKVAYIKLEDRTSGELFAQAPVDQFPGTAVESVTDSSRYFVIRIEDGNGRRAFIGLGFGDRGDAFDFNVALQDHFKWVKQQCEFAKQAQNPDEGPKLDLGFKDGQTIKINIANMRKKEGAAGTPRARPTSAGGLSLLPPPPGGKSSTVIPPSGEQLSVGGSLVQPAVVSGSGGATELWPQSKPAAAATADIWGDFTKSTGSPSSQSQPGTGWVQF [S41A] was run?
The value was “increasing interaction”.
